Target: T1, dog iRhom2 full length wild type, C-terminally tagged with 3 consecutive copies of the T7 epitope (dog, UniProt Q00M95 1-827)
T1 construct: whole, on cells; also called Dog-iR2-FL-WT-T7
T1 sequence: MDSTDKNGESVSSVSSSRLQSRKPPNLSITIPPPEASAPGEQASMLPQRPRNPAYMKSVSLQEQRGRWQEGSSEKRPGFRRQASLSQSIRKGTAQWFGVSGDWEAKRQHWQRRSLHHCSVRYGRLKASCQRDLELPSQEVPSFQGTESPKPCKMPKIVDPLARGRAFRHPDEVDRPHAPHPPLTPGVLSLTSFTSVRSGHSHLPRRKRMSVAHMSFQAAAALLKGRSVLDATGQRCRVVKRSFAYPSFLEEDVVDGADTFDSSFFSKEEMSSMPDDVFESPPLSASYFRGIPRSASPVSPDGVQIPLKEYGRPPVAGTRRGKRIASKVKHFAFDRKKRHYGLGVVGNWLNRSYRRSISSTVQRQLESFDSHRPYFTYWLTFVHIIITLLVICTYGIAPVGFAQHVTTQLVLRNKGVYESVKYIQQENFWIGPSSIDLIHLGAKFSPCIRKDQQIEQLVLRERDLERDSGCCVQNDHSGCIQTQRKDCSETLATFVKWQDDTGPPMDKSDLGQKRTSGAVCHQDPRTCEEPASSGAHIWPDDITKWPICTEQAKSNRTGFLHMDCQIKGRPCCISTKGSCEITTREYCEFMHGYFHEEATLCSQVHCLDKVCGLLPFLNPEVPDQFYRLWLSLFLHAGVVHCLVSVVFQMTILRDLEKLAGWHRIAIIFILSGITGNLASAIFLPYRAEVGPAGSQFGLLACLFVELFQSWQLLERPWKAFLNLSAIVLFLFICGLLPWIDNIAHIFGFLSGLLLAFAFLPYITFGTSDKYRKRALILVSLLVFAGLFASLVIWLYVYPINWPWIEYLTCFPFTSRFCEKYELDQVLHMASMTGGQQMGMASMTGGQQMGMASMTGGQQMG
Assay: FACS, MEF-DKO-dog-iR2-FL-WT-T7 cells, 3 µg/ml
Procedure: In brief, immortalized MEF-DKO-EV control cells, MEF-DKO-rhesus-iR2-FL-WT-T7 cells, MEF-DKO-cyno-iR2-FL-WT-T7 cells, MEF-DKO-dog-iR2-FL-WT-T7 cells and MEF-DKO-rabbit-iR2-FL-WT-T7 cells, as well as their respective iRhom1 counterparts, were harvested with 10 mM EDTA in PBS, washed and resuspended in FACS buffer (PBS, 3% FBS, 0.05% sodium azide), and seeded in Nunc U-bottom 96-well plates (Thermo Fisher Scientific, USA) at approximately 3×10⁵ cells per well. To pellet cells and remove supernatants, the plates were centrifuged at 1,500 rpm and 4° C. for 3 minutes. For primary staining, cells were resuspended in 100 μl per well of either FACS buffer alone (controls), mouse monoclonal anti-T7 IgG (Merck Millipore, USA) at 3 μg/ml FACS buffer or the antibodies of the present disclosure also at 3 μg/ml FACS buffer and incubated on ice for 1 hour. Afterwards, plates were centrifuged at 1,500 rpm and 4° C. for 3 minutes and washed twice with 200 μl per well of FACS buffer. For secondary staining, cells were spun down and resuspended in 100 μl per well of PE-conjugated goat anti-mouse IgG F(ab′)2 detection fragment (Dianova, Germany) diluted 1:100 in FACS buffer. Protected from light, the cell suspensions were incubated on ice for 1 hour. […] Finally, cells were resuspended in 150 μl per well of FACS buffer and analyzed using a BD Accuri™ C6 Plus flow cytometer (Becton Dickinson, Germany).

B1: antibody 3 (antibody, V domains shown)
VH: QVTLKESGPGILQPSQTLSLTCSFSGFSLTTFAMGIGWVRQPSGKGLEWLAHIWWDGEKYNNPVLKSRLTISKDTSKNQVFLRIANVDTPDTATYYCARISSIYYIIDNWGQGTSVTVSS
VL: DIVLTQSPATLSVTPGHSVSLSCRASQSISNNLHWYQKKSHESPRLLIKYVSQSISGIPSRFSGSGSGTDFTLSINSVETEDFGMYFCQQSYNWPLTFGAGTKLELK
notes: Mouse IgG, kappa light chain; also called clone #3; purified antibody 3
binding result: binds

B2: antibody 5 (antibody, V domains shown)
VH: QVTLKESGPGILQPSQTLSLTCSFSGFSLSTFGMGVGWIRQPSGKGLEWLAHIWWDDEKYYNSALKSRLTISKATSKNQAFLKIANVDTADTATYYCARISNYGSNYWYFNVWGTGTTVTVSS
VL: QVVLTQSPALMSASPGEKVTMTCSAGSSVSCMYWYQQKPGSSPRVLIYDTSNLASGVPARFTGSGSGTSYSLTISRMEAEDAASYYCQQWNSYPLTFGAGTKLELK
notes: Mouse IgG, kappa light chain; also called clone #5; purified antibody 5
binding result: binds

Source: US20240174744A1 (SCIRHOM, published 2024)
